Reference: article PMC11096469

What was measured:
[1] = biological target: C_(γ1-3) chain (VH-deleted human IgG1 heavy chain) (human); assay: non-reducing SDS-PAGE with immunoblot; culture supernatants of HEK293 transfectants 48 h after transfection; 4-20% gels, reducing and non-reducing; probed with anti-human IgG-Fc and anti-human Cκ; covalent assembly
[2] = biological target: C_(γ2-3) chain (Fc fragment containing the hinge region) (human); assay: as above
[3] = biological target: Cκ chain (Vκ-deleted human kappa light chain) (human) (UniProt P01834); assay: non-reducing SDS-PAGE with immunoblot; culture supernatants of HEK293-BiP cells transfected with LCs alone, 48 h after transfection; reducing and non-reducing gels

Question: With “C_(γ1-3) chain (VH-deleted human IgG1 heavy chain) (domain or fragment)” as the substance, how does the stoichiometry N [1] read?
Answer: 2

Question: With “C_(γ2-3) chain (Fc fragment containing the hinge region) (domain or fragment)” as the substance, how does the stoichiometry N [2] read?
Answer: 2

Question: With “Cκ chain (Vκ-deleted human kappa light chain) (from UniProt P01834 1-107) (domain or fragment)” as the substance, how does the stoichiometry N [3] read?
Answer: 2
